Target: T1, TAp63γ (UniProt Q9H3D4)
T1 sequence: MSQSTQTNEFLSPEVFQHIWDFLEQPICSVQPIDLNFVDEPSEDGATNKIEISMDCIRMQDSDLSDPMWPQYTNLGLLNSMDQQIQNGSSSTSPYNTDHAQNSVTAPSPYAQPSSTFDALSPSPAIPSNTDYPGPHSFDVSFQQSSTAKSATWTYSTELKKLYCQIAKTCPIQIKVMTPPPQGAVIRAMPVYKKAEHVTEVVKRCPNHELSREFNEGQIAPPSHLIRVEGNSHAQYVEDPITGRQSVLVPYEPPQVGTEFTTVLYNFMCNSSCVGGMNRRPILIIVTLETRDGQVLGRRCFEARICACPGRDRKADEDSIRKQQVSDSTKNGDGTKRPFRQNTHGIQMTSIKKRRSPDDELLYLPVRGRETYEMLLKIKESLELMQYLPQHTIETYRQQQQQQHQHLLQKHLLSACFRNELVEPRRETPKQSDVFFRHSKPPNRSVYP
Assay: cell_activity
Details: Saos-2 reporter, levels approaching 80% of p53

Substance: PG-13 β-galactosidase reporter (multiple copies of minimal p53 binding sequence)
- activity: 80 % of p53

From patent publication US6946256
